Laboratory results from the supplement of paper PMC11246515.
± gives the standard deviation of the averaged measurements.

Test: total protein half-life in vivo (active degradation + dilution); higher = more stable protein
[1] = E. coli NCM3722 delta-clpP delta-lon delta-hslV, growth: N-lim chemostat, doubling time 6 h
[2] = E. coli NCM3722 delta-clpP, growth: N-lim chemostat, doubling time 6 h
[3] = E. coli NCM3722 delta-hslV, growth: N-lim chemostat, doubling time 6 h
[4] = E. coli NCM3722 delta-lon, growth: N-lim chemostat, doubling time 6 h
[5] = E. coli NCM3722 delta-smpB, growth: N-lim chemostat, doubling time 6 h
[6] = wild type E. coli NCM3722, growth: C-lim chemostat, doubling time 3 h
[7] = wild type E. coli NCM3722, growth: C-lim chemostat, doubling time 6 h
[8] = wild type E. coli NCM3722, growth: C-lim chemostat, doubling time 12 h
[9] = wild type E. coli NCM3722, growth: N-lim chemostat, doubling time 6 h
[10] = wild type E. coli NCM3722, growth: N-lim chemostat, doubling time 12 h
[11] = wild type E. coli NCM3722, growth: P-lim chemostat, doubling time 6 h
[12] = wild type E. coli NCM3722, growth: P-lim chemostat, doubling time 12 h

Sequence | total protein half-life in vivo [1] [h] | total protein half-life in vivo [2] [h] | total protein half-life in vivo [3] [h] | total protein half-life in vivo [4] [h] | total protein half-life in vivo [5] [h] | total protein half-life in vivo [6] [h] | total protein half-life in vivo [7] [h] | total protein half-life in vivo [8] [h] | total protein half-life in vivo [9] [h] | total protein half-life in vivo [10] [h] | total protein half-life in vivo [11] [h] | total protein half-life in vivo [12] [h]
MEKAKQVTWRLLAAGVCLLTVSSVARADSLDEQRSRYAQIKQAWDNRQMDVVEQMMPGLKDYPLYPYLEYRQITDDLMNQPAVTVTNFVRANPTLPPARTLQSRFVNELARREDWRGLLAFSPEKPGTTEAQCNYYYAKWNTGQSEEAWQGAKELWLTGKSQPNACDKLFSVWRASGKQDPLAYLERIRLAMKAGNTGLVTVLAGQMPADYQTIASAIISLANNPNTVLTFARTTGATDFTRQMAAVAFASVARQDAENARLMIPSLAQAQQLNEDQIQELRDIVAWRLMGNDVTDEQAKWRDDAIMRSQSTSLIERRVRMALGTGDRRGLNTWLARLPMEAKEKDEWRYWQADLLLERGREAEAKEILHQLMQQRGFYPMVAAQRIGEEYELKIDKAPQNVDSALTQGPEMARVRELMYWNLDNTARSEWANLVKSKSKTEQAQLARYAFNNQWWDLSVQATIAGKLWDHLEERFPLAYNDLFKRYTSGKEIPQSYAMAIARQESAWNPKVKSPVGASGLMQIMPGTATHTVKMFSIPGYSSPGQLLDPETNINIGTSYLQYVYQQFGNNRIFSSAAYNAGPGRVRTWLGNSAGRIDAVAFVESIPFSETRGYVKNVLAYDAYYRYFMGDKPTLMSATEWGRRY [P0AGC3] | 5.924 ± 0.022 | 6.7 ± 0.89 | 6.326 ± 0.06 | 6.53 ± 0.35 | 6.054 ± 0.043 | 3.16 ± 0.12 | 6.34 ± 0.25 | 12 ± 2.2 | 6.29 ± 0.41 | 12.2 ± 0.23 | 6.07 ± 0.19 | 12.3 ± 0.39
MEKENITIDPRSSFTPSSSADIPVPPDGLVQRSTRIKRIQTTAMLLLFFAAVINYLDRSSLSVANLTIREELGLSATEIGALLSVFSLAYGIAQLPCGPLLDRKGPRLMLGLGMFFWSLFQAMSGMVHNFTQFVLVRIGMGIGEAPMNPCGVKVINDWFNIKERGRPMGFFNAASTIGVAVSPPILAAMMLVMGWRGMFITIGVLGIFLAIGWYMLYRNREHVELTAVEQAYLNAGSVNARRDPLSFAEWRSLFRNRTMWGMMLGFSGINYTAWLYLAWLPGYLQTAYNLDLKSTGLMAAIPFLFGAAGMLVNGYVTDWLVKGGMAPIKSRKICIIAGMFCSAAFTLIVPQATTSMTAVLLIGMALFCIHFAGTSCWGLIHVAVASRMTASVGSIQNFASFICASFAPIITGFIVDTTHSFRLALIICGCVTAAGALAYIFLVRQPINDPRKD | – | – | – | – | – | – | – | 5.28 | – | – | – | –
MEKKIGFIGCGNMGKAILGGLIASGQVLPGQIWVYTPSPDKVAALHDQFGINAAESAQEVAQIADIIFAAVKPGIMIKVLSEITSSLNKDSLVVSIAAGVTLDQLARALGHDRKIIRAMPNTPALVNAGMTSVTPNALVTPEDTADVLNIFRCFGEAEVIAEPMIHPVVGVSGSSPAYVFMFIEAMADAAVLGGMPRAQAYKFAAQAVMGSAKMVLETGEHPGALKDMVCSPGGTTIEAVRVLEEKGFRAAVIEAMTKCMEKSEKLSKS [P0A9L8] | 6.83 ± 1.6 | 5.45 ± 0.76 | 5.12 ± 0.073 | 5.68 ± 0.49 | 5.54 ± 0.52 | 3.01 ± 0.19 | 6.48 ± 1 | 10.6 ± 2.5 | 5.02 ± 0.91 | 9.31 ± 1 | 5.51 ± 0.83 | 11.8 ± 0.66
MEKNSLFSQRIRLRHLHTFVAVAQQGTLGRAAETLNLSQPALSKTLNELEQLTGARLFERGRQGAQLTLPGEQFLTHAVRVLDAINTAGRSLHRKEGLNNDVVRVGALPTAALGILPSVIGQFHQQQKETTLQVATMSNPMILAGLKTGEIDIGIGRMSDPELMTGLNYELLFLESLKLVVRPNHPLLQENVTLSRVLEWPVVVSPEGTAPRQHSDALVQSQGCKIPSGCIETLSASLSRQLTVEYDYVWFVPSGAVKDDLRHATLVALPVPGHGAGEPIGILTRVDATFSSGCQLMINAIRKSMPF | 5.7 ± 0.088 | 2.66 ± 1.2 | 2.014 ± 0.017 | 4.21 ± 0.12 | 1.61 ± 0.065 | 1.77 ± 0.26 | 3.159 ± 0.0044 | 4.49 ± 0.46 | 2.01 ± 0.12 | 2.5 ± 0.039 | 2.67 ± 0.7 | 3.86 ± 0.13
MEKTTTQELLAQAEKICAQRNVRLTPQRLEVLRLMSLQDGAISAYDLLDLLREAEPQAKPPTVYRALDFLLEQGFVHKVESTNSYVLCHLFDQPTHTSAMFICDRCGAVKEECAEGVEDIMHTLAAKMGFALRHNVIEAHGLCAACVEVEACRHPEQCQHDHSVQVKKKPR [P0AC51] | 5.27 ± 0.88 | 5.4504 ± 0.0027 | 5.09 | 5.63 ± 0.19 | 4.2 ± 0.9 | – | 3.79 | 9 ± 1.9 | 5.15 | 6.28 | 3.86 ± 0.18 | 8.62 ± 0.42
